Experimental data published in doi:10.1101/2025.10.16.681758 (bioRxiv, 2025).

What was measured:
[1] = test system: aCcr1 (Saccharolobus islandicus REY15A); assay: EMSA
[2] = test system: aCcr2 (Saccharolobus islandicus REY15A); assay: EMSA
[3] = test system: aCcr3 (Saccharolobus islandicus REY15A); assay: EMSA
[4] = target: the molecule itself; assay: SEC

Row | Molecule | stoichiometry N [4] | other results
1 | PcdvA | – | Kd [1]: 93.5 nM; Kd [2]: 245 nM; Kd [3]: 36 nM
2 | MRKVVSVRLKEDVLRDVDIYTRKLGLNSRTEFIKQAIEFYIKSKS (natural protein, Saccharolobus islandicus REY15A, UniProt F0NI75 1-45, looked up) [SiRe_1373] | 2 | –
3 | aCcr2 (natural protein, Saccharolobus islandicus REY15A, UniProt F0NEU4 1-57, looked up) MVRVITFKAEEELLVKLDLFALNSRMSRSEIIRMAIEKYLEEAAGGIRTRDRRLSRQ | 2 | –
4 | aCcr1 (natural protein, Saccharolobus islandicus REY15A, UniProt F0NBE5 1-58, looked up) MRVVTFKVEEDLLELLDRYAIKYGLNRSEAIRKAIEKMVRDELSKERVPVARVEKIKL | 2 | –
5 | MKIITVKLPEQFLEAIDELVNTGRYGSRSEVIRAAIGDFIRKELWVTTEE (natural protein, Saccharolobus islandicus REY15A, UniProt F0NFD7 1-50, looked up) [aCcr3] | 2 | –
6 | SiRe_0131 (natural protein, Saccharolobus islandicus REY15A, UniProt F0NG80 1-74, looked up) MEKIVKVNDTTYILEDERSVVITFKLEENILSMVDEIVKKLGYDYRSDFIRDAIEKYINYLKSSSNNSKMNINE | 2 | –
